For the series, the system named is Escherichia coli TOP10. As to the kind of experiment: shrunken log2 fold change of peptide-encoding DNA abundance (4.5 h post-induction vs induction); higher = less antimicrobial activity (less host growth inhibition). The following applies: time post-induction: 4.5 h; library: site-saturation at positions 5, 18, 19, 20.
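Note: peptides expressed intracellularly from a pBAD plasmid library in pooled LB shake-flask culture, induced with 0.3% L-arabinose, DNA abundance read by NGS, three biological replicates, DESeq2 with apeglm shrinkage.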

For RRIRGRPPRLPRPRPRPYWGPRP, the “shrunken log2 fold change” value turned out to be 0.198.

In the case of RRIRARPPRLPRPRPRPWFFPRP, the “shrunken log2 fold change” value is 0.089.

Regarding RRIRKRPPRLPRPRPRPKPLPRP, the “shrunken log2 fold change” value worked out at 0.687.

With RRIRDRPPRLPRPRPRPWAPPRP, the “shrunken log2 fold change” value amounted to 0.00499.

For RRIRRRPPRLPRPRPRPYNRPRP, the “shrunken log2 fold change” value is -0.276.

As for RRIRVRPPRLPRPRPRPALGPRP, the “shrunken log2 fold change” value turned out to be 0.423.

For RRIRRRPPRLPRPRPRPPYSPRP, the “shrunken log2 fold change” value came out at 0.122.

For RRIRNRPPRLPRPRPRPAIPPRP, the “shrunken log2 fold change” value is -0.202.

For the sequence RRIRARPPRLPRPRPRPLMIPRP, the “shrunken log2 fold change” value was -0.138.

RRIRERPPRLPRPRPRPEFTPRP: the “shrunken log2 fold change” value is 0.0663.

Consider RRIRKRPPRLPRPRPRPLSNPRP, for which the “shrunken log2 fold change” value amounted to 0.436.

In the case of RRIRQRPPRLPRPRPRPAKYPRP, the “shrunken log2 fold change” value was -0.0291.

As for RRIRVRPPRLPRPRPRPILLPRP, the “shrunken log2 fold change” value is -0.815.

For RRIRLRPPRLPRPRPRPHNWPRP, the “shrunken log2 fold change” value was -0.0581.

In the case of RRIRLRPPRLPRPRPRPCQGPRP, the “shrunken log2 fold change” value is 0.00157.

RRIRNRPPRLPRPRPRPQCDPRP: the “shrunken log2 fold change” value was -0.282.

Regarding RRIRSRPPRLPRPRPRPASVPRP, the “shrunken log2 fold change” value worked out at 0.377.

On to RRIRARPPRLPRPRPRPSPFPRP, for which the “shrunken log2 fold change” value is 0.0195.

Turning to RRIRGRPPRLPRPRPRPWDCPRP, the “shrunken log2 fold change” value is -0.0637.

For the sequence RRIRWRPPRLPRPRPRPGDQPRP, the “shrunken log2 fold change” value is 0.175.

RRIRLRPPRLPRPRPRPGKTPRP: the “shrunken log2 fold change” value was 0.086.

For the sequence RRIRHRPPRLPRPRPRPKHKPRP, the “shrunken log2 fold change” value is -0.297.

Regarding RRIRIRPPRLPRPRPRPGATPRP, the “shrunken log2 fold change” value was -0.0576.

For RRIRHRPPRLPRPRPRPSLCPRP, the “shrunken log2 fold change” value is -0.0468.

For the sequence RRIRARPPRLPRPRPRPEVTPRP, the “shrunken log2 fold change” value amounted to 1.28.

In the case of RRIRDRPPRLPRPRPRPQGIPRP, the “shrunken log2 fold change” value was -0.0548.

For RRIRPRPPRLPRPRPRPNLYPRP, the “shrunken log2 fold change” value is -0.276.

Turning to RRIRLRPPRLPRPRPRPHKHPRP, the “shrunken log2 fold change” value was -0.53.

RRIRVRPPRLPRPRPRPSYQPRP: the “shrunken log2 fold change” value was -0.34.

With RRIRYRPPRLPRPRPRPKQWPRP, the “shrunken log2 fold change” value is 0.0575.

With RRIRMRPPRLPRPRPRPQNRPRP, the “shrunken log2 fold change” value is -0.0361.

Turning to RRIRERPPRLPRPRPRPKTCPRP, the “shrunken log2 fold change” value was -0.267.

On to RRIRRRPPRLPRPRPRPYYSPRP, for which the “shrunken log2 fold change” value is -0.532.

For RRIRTRPPRLPRPRPRPERTPRP, the “shrunken log2 fold change” value is -0.0336.

Turning to RRIRMRPPRLPRPRPRPSECPRP, the “shrunken log2 fold change” value came out at 0.0809.

As for RRIRRRPPRLPRPRPRPVSCPRP, the “shrunken log2 fold change” value is -0.121.

For RRIRVRPPRLPRPRPRPGYVPRP, the “shrunken log2 fold change” value was -0.351.

Regarding RRIRPRPPRLPRPRPRPACSPRP, the “shrunken log2 fold change” value came out at 0.184.

On to RRIRERPPRLPRPRPRPSHLPRP, for which the “shrunken log2 fold change” value is -0.188.

Take RRIRCRPPRLPRPRPRPRRIPRP: the “shrunken log2 fold change” value was -0.246.

Take RRIRARPPRLPRPRPRPVMDPRP: the “shrunken log2 fold change” value turned out to be 0.671.

Regarding RRIRNRPPRLPRPRPRPKQWPRP, the “shrunken log2 fold change” value was found to be 0.217.

With RRIRHRPPRLPRPRPRPCFRPRP, the “shrunken log2 fold change” value was -0.346.

Consider RRIRLRPPRLPRPRPRPACTPRP, for which the “shrunken log2 fold change” value was -0.128.

For RRIRGRPPRLPRPRPRPLDMPRP, the “shrunken log2 fold change” value worked out at 0.441.

On to RRIRRRPPRLPRPRPRPAQNPRP, for which the “shrunken log2 fold change” value stood at 0.398.

On to RRIRDRPPRLPRPRPRPAFDPRP, for which the “shrunken log2 fold change” value is 0.284.

Turning to RRIRIRPPRLPRPRPRPFSEPRP, the “shrunken log2 fold change” value was -0.315.

Take RRIRLRPPRLPRPRPRPYDYPRP: the “shrunken log2 fold change” value is -0.0244.

RRIRARPPRLPRPRPRPWGLPRP: the “shrunken log2 fold change” value was 0.617.

As to RRIRCRPPRLPRPRPRPTMGPRP, the “shrunken log2 fold change” value is -0.136.

Consider RRIRGRPPRLPRPRPRPQMWPRP, for which the “shrunken log2 fold change” value stood at 0.891.

On to RRIRPRPPRLPRPRPRPSRPPRP, for which the “shrunken log2 fold change” value worked out at 0.133.

As for RRIRRRPPRLPRPRPRPKECPRP, the “shrunken log2 fold change” value came out at 0.0842.

Regarding RRIRKRPPRLPRPRPRPMKDPRP, the “shrunken log2 fold change” value came out at 0.618.

For the sequence RRIRNRPPRLPRPRPRPITCPRP, the “shrunken log2 fold change” value was -0.166.

In the case of RRIRVRPPRLPRPRPRPMPLPRP, the “shrunken log2 fold change” value is -0.348.

For RRIRTRPPRLPRPRPRPKNFPRP, the “shrunken log2 fold change” value was -0.0884.

Turning to RRIRVRPPRLPRPRPRPPRKPRP, the “shrunken log2 fold change” value was found to be 0.482.

RRIRHRPPRLPRPRPRPFYVPRP: the “shrunken log2 fold change” value is 2.94.

Turning to RRIRKRPPRLPRPRPRPNNPPRP, the “shrunken log2 fold change” value is -0.00604.

RRIRYRPPRLPRPRPRPPLDPRP: the “shrunken log2 fold change” value worked out at 0.443.

Regarding RRIRLRPPRLPRPRPRPHSQPRP, the “shrunken log2 fold change” value is -0.0709.

On to RRIRARPPRLPRPRPRPWSFPRP, for which the “shrunken log2 fold change” value is -0.00357.

For RRIRCRPPRLPRPRPRPHSEPRP, the “shrunken log2 fold change” value is -0.319.

For the sequence RRIRERPPRLPRPRPRPMMHPRP, the “shrunken log2 fold change” value amounted to 0.0413.

Regarding RRIRYRPPRLPRPRPRPNDIPRP, the “shrunken log2 fold change” value is -0.299.

For RRIRWRPPRLPRPRPRPPDGPRP, the “shrunken log2 fold change” value was 0.784.

As to RRIRLRPPRLPRPRPRPEIFPRP, the “shrunken log2 fold change” value was 0.161.

RRIRRRPPRLPRPRPRPRYKPRP: the “shrunken log2 fold change” value was -0.0686.

Turning to RRIRRRPPRLPRPRPRPSEKPRP, the “shrunken log2 fold change” value turned out to be 0.51.

Regarding RRIRHRPPRLPRPRPRPQMWPRP, the “shrunken log2 fold change” value is 2.46e-05.

On to RRIRKRPPRLPRPRPRPKRTPRP, for which the “shrunken log2 fold change” value was determined as 1.7.

Take RRIRGRPPRLPRPRPRPGNYPRP: the “shrunken log2 fold change” value is -0.0899.

Regarding RRIRQRPPRLPRPRPRPKEPPRP, the “shrunken log2 fold change” value was determined as 0.0201.

For the sequence RRIRARPPRLPRPRPRPLDAPRP, the “shrunken log2 fold change” value was 0.746.

Take RRIRPRPPRLPRPRPRPMASPRP: the “shrunken log2 fold change” value was determined as 0.011.

Turning to RRIRSRPPRLPRPRPRPLHFPRP, the “shrunken log2 fold change” value was -0.17.

For the sequence RRIRARPPRLPRPRPRPPWGPRP, the “shrunken log2 fold change” value stood at 0.48.

In the case of RRIRRRPPRLPRPRPRPNCCPRP, the “shrunken log2 fold change” value stood at 0.0381.

Regarding RRIRQRPPRLPRPRPRPGSFPRP, the “shrunken log2 fold change” value was -0.0531.

Consider RRIRERPPRLPRPRPRPVAWPRP, for which the “shrunken log2 fold change” value stood at 0.00482.

Turning to RRIRPRPPRLPRPRPRPLRQPRP, the “shrunken log2 fold change” value is 0.0954.

RRIRVRPPRLPRPRPRPHMGPRP: the “shrunken log2 fold change” value was -0.302.

Regarding RRIRVRPPRLPRPRPRPMRPPRP, the “shrunken log2 fold change” value came out at 0.544.

Turning to RRIRWRPPRLPRPRPRPKWFPRP, the “shrunken log2 fold change” value amounted to 0.257.

For RRIRKRPPRLPRPRPRPLTVPRP, the “shrunken log2 fold change” value worked out at 0.344.

In the case of RRIRIRPPRLPRPRPRPALLPRP, the “shrunken log2 fold change” value is 0.178.

As to RRIRWRPPRLPRPRPRPMGHPRP, the “shrunken log2 fold change” value is -0.116.

RRIRSRPPRLPRPRPRPKWSPRP: the “shrunken log2 fold change” value was -0.132.

On to RRIRLRPPRLPRPRPRPHWLPRP, for which the “shrunken log2 fold change” value was -0.0104.

Regarding RRIRRRPPRLPRPRPRPDIYPRP, the “shrunken log2 fold change” value was found to be 0.0543.

For the sequence RRIRERPPRLPRPRPRPDQPPRP, the “shrunken log2 fold change” value came out at 0.0454.

Consider RRIRKRPPRLPRPRPRPWAKPRP, for which the “shrunken log2 fold change” value stood at 0.0651.

In the case of RRIRKRPPRLPRPRPRPGHTPRP, the “shrunken log2 fold change” value came out at 0.272.

Take RRIRNRPPRLPRPRPRPDIWPRP: the “shrunken log2 fold change” value is -0.394.

For RRIRNRPPRLPRPRPRPTRNPRP, the “shrunken log2 fold change” value was 0.0941.

Regarding RRIRERPPRLPRPRPRPRQEPRP, the “shrunken log2 fold change” value is 0.315.

RRIRPRPPRLPRPRPRPQMSPRP: the “shrunken log2 fold change” value was found to be 0.0674.

For RRIRIRPPRLPRPRPRPHNLPRP, the “shrunken log2 fold change” value is -0.334.

Consider RRIRCRPPRLPRPRPRPWKGPRP, for which the “shrunken log2 fold change” value was -0.0267.

Consider RRIRARPPRLPRPRPRPHDMPRP, for which the “shrunken log2 fold change” value turned out to be 0.245.

In the case of RRIRIRPPRLPRPRPRPEPCPRP, the “shrunken log2 fold change” value was -0.057.

Take RRIRERPPRLPRPRPRPDSLPRP: the “shrunken log2 fold change” value is -0.391.

RRIRCRPPRLPRPRPRPMIVPRP: the “shrunken log2 fold change” value came to 0.0976.

Consider RRIRTRPPRLPRPRPRPVMSPRP, for which the “shrunken log2 fold change” value is -0.123.

With RRIRDRPPRLPRPRPRPKVKPRP, the “shrunken log2 fold change” value is -0.337.

Regarding RRIRMRPPRLPRPRPRPWQGPRP, the “shrunken log2 fold change” value was 0.155.

For RRIRHRPPRLPRPRPRPNYKPRP, the “shrunken log2 fold change” value is -0.603.

As to RRIRARPPRLPRPRPRPQCRPRP, the “shrunken log2 fold change” value was -0.161.

Consider RRIRTRPPRLPRPRPRPIAIPRP, for which the “shrunken log2 fold change” value is -0.0261.

As to RRIRTRPPRLPRPRPRPGAEPRP, the “shrunken log2 fold change” value worked out at 0.25.

Regarding RRIRTRPPRLPRPRPRPIFRPRP, the “shrunken log2 fold change” value stood at 0.00202.

For RRIRFRPPRLPRPRPRPCNRPRP, the “shrunken log2 fold change” value was -0.111.

For the sequence RRIRNRPPRLPRPRPRPHDDPRP, the “shrunken log2 fold change” value is 0.008.

Turning to RRIRMRPPRLPRPRPRPEQHPRP, the “shrunken log2 fold change” value is 1.06.

As to RRIRYRPPRLPRPRPRPDFLPRP, the “shrunken log2 fold change” value is -0.542.

On to RRIRMRPPRLPRPRPRPCYLPRP, for which the “shrunken log2 fold change” value was 0.0715.

Take RRIRLRPPRLPRPRPRPPVKPRP: the “shrunken log2 fold change” value is -0.0732.

For RRIRVRPPRLPRPRPRPKNNPRP, the “shrunken log2 fold change” value is -0.406.

Consider RRIRERPPRLPRPRPRPHAPPRP, for which the “shrunken log2 fold change” value is -0.0944.

In the case of RRIRTRPPRLPRPRPRPMVLPRP, the “shrunken log2 fold change” value was -0.0596.

As to RRIRTRPPRLPRPRPRPGYVPRP, the “shrunken log2 fold change” value is -0.526.

For the sequence RRIRCRPPRLPRPRPRPGGFPRP, the “shrunken log2 fold change” value came out at 0.146.

For the sequence RRIRVRPPRLPRPRPRPVAYPRP, the “shrunken log2 fold change” value was -0.282.
